US20050287527

human α-thrombin
proteolytic cleavage of the peptide by thrombin (GFSARHL): proteolytically cleaved after the arginine residues in the presence of the human thrombin
proteolytic cleavage of the peptide by thrombin (GPNPRHL): proteolytically cleaved after the arginine residues in the presence of the human thrombin
proteolytic cleavage of the peptide by thrombin (GLDPRHL): proteolytically cleaved after the arginine residues in the presence of the human thrombin
proteolytic cleavage of the peptide by thrombin (GVDPRHL): proteolytically cleaved after the arginine residues in the presence of the human thrombin
proteolytic cleavage of the peptide by thrombin (GFNPRHL): proteolytically cleaved after the arginine residues in the presence of the human thrombin
